For assay [1], the target named is E1E2 of HCV isolate H77 with single mutation N325A (in E1) (Hepatitis C virus genotype 1a, strain …, UniProt P27958 192-383; P27958 384-746). The experiment in a line: ELISA, GNA-captured E1E2 lysate; EC50 wild type / EC50 mutant. (In general: An ELISA detects its analyte on a solid surface through an enzyme-linked reagent.)
Assay [2] has as its target E1E2 of HCV isolate H77 with single mutation G436A (Hepatitis C virus genotype 1a, strain …, UniProt P27958 192-383; P27958 384-746). The assay is described as above.
In assay [3] the target is E1E2 of HCV isolate H77 with single mutation L441A (Hepatitis C virus genotype 1a, strain …, UniProt P27958 192-383; P27958 384-746). The description is as above.
Assay [4] has as its target E1E2 of HCV isolate H77 with single mutation Y443A (Hepatitis C virus genotype 1a, strain …, UniProt P27958 192-383; P27958 384-746). Described as above.
Assay [5] concerns the target E1E2 of HCV isolate H77 with single mutation N448A (Hepatitis C virus genotype 1a, strain …, UniProt P27958 192-383; P27958 384-746). Described as above.
The target of assay [6] is E1E2 of HCV isolate H77 with single mutation T526A (Hepatitis C virus genotype 1a, strain …, UniProt P27958 192-383; P27958 384-746). Described as above.
Assay [7] has as its target E1E2 of HCV isolate H77 with single mutation Y527A (Hepatitis C virus genotype 1a, strain …, UniProt P27958 192-383; P27958 384-746). Described as above.
The target in assay [8] is E1E2 of HCV isolate H77 with single mutation N532A (Hepatitis C virus genotype 1a, strain …, UniProt P27958 192-383; P27958 384-746). The assay is described as above.
The target of assay [9] is E1E2 of HCV isolate H77 with single mutation D533A (Hepatitis C virus genotype 1a, strain …, UniProt P27958 192-383; P27958 384-746). Described as above.
For assay [10], the target named is E1E2 of HCV isolate H77 with single mutation P612A (Hepatitis C virus genotype 1a, strain …, UniProt P27958 192-383; P27958 384-746). The description is as above.
Assay [11] has as its target E1E2 of HCV isolate H77 with single mutation P676A (Hepatitis C virus genotype 1a, strain …, UniProt P27958 192-383; P27958 384-746). Described as above.
In assay [12] the target is E1E2 of HCV isolate H77 with single mutation D698A (Hepatitis C virus genotype 1a, strain …, UniProt P27958 192-383; P27958 384-746). The description is as above.
Assay [13] addresses E1E2 of HCV isolate H77 (genotype 1a), wild type (Hepatitis C virus genotype 1a, strain …, UniProt P27958 192-383; P27958 384-746). The experiment in a line: cell-based or functional assay.
Assay [14] concerns the target E1E2 of HCV isolate AMS.1b.20877857 (genotype 1b) (Hepatitis C virus genotype 1b). The experiment in a line: cell-based or functional assay.
Assay [15] concerns the target E1E2 of HCV isolate H77 with single mutation L413A (Hepatitis C virus genotype 1a, strain …, UniProt P27958 192-383; P27958 384-746). The experiment in a line: ELISA, GNA-captured E1E2 lysate; EC50 wild type / EC50 mutant.
In assay [16] the target is E1E2 of HCV isolate H77 with single mutation G418A (Hepatitis C virus genotype 1a, strain …, UniProt P27958 192-383; P27958 384-746). The description is as above.
The target of assay [17] is E1E2 of HCV isolate H77 with single mutation W420A (Hepatitis C virus genotype 1a, strain …, UniProt P27958 192-383; P27958 384-746). The description is as above.
The target in assay [18] is T1, soluble E2-his6-sortase tag from HCV isolate H77 (genotype 1a) (Hepatitis C virus genotype 1a, strain …, UniProt P27958 384-717).
T1 construct: also called E2-his6-ST; E2 genotype 1a
The experiment in a line: SPR (IBIS MX96), antibody spotted on chip, soluble E2-his as analyte.

For assay [19], the target named is T2, soluble E2-his6-sortase tag from HCV isolate AMS.2b.20876551.kloon21 (genotype 2b) (Hepatitis C virus genotype 2b).
T2 chain: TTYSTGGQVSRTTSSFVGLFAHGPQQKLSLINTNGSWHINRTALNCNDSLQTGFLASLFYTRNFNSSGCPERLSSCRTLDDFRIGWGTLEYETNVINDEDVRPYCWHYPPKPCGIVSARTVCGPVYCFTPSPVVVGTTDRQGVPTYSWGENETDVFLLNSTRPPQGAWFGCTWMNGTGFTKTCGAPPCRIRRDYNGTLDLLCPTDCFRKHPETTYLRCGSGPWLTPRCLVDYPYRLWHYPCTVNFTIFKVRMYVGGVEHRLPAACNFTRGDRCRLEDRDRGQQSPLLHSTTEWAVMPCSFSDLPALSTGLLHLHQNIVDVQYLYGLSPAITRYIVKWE
Described as above.

Where only a bound is given, the exact number is not on record here.

B1: AT15-012 (antibody, V domains shown)
VH: QVQLVQSGAEVKKPGSSVKVSCKASGGNFNIFPITWVRQAPGQGLEWMGEIIPMLGTPEYAQKFQGRVTITADKSTGTAFMELSSLRSEDTAVYYCARTETTLPGTLFFVYYFHFWGQGTPVTVSS
VL: EIVMTQSPVTLSVSPGERAILSCRASQSVSSSLAWYQQKPGQAPRLLIYGASTRATGVPARFSGSGSGTEFTLTISSVQSEDYAIYFCQQYNDRPPWTFGQGTKVEIK
notes: also called AT15-12
As to B1, the “relative binding, mutant vs wild type” value in assay [1] was found to be 94%; in assay [2] it was 91%; in assay [3] it was 83%; in [4], 103%; in assay [5], 129%; in assay [6], 82%. Moreover, the “relative binding, mutant vs wild type” value in assay [7] was 76%; in [8], 125%; in assay [9] it was 82%; in assay [10], 81%; in [11], 92%; in assay [12], 117%.

B2: AT12-007 (antibody, V domains shown)
VH: QVQLEQSGAEVKKPGASVKVSCKVSGYTLTELSMHWVRQAPGKGLEWMGSFDPADGERLYAQKFQGRVIMSEDTSTDTAYMELSSLRSEDAAVYYCATAPRMTMFGVIMALDSWGQGTLVTVSS
VL: DIQMTQSPSTLSASLGDRVTITCRASQNINKYLAWYQQKPGKAPKLLIYKASNLQSGVPSRFSGSGSGTDFILTISSLQPDDFATYYCQQYTTYSAWTFGQGTNVDIKR
Consider B2, for which the results for the “IC50, HCVpp neutralization” value in assay [13] and in [14] were 2.67 µg/mL and 0.04 µg/mL, respectively. The “IC90, HCVpp neutralization” value in assay [13] was above 50 µg/mL; in assay [14] it was 0.5 µg/mL. Besides, the “relative binding, mutant vs wild type” value in [15] amounted to 187%; in [16] it was 130%; in assay [17], 87%. Besides, the Kd (usually a measure of binding affinity in units of concentration) in [18] came out at 44 nM; in assay [19] it was 3.8 nM. For the same molecule, the koff (in general, the rate constant with which the complex falls apart) in assay [18] was determined as 0.00184 s⁻¹; in assay [19] it was 0.00019 s⁻¹.

B3: AT12-010 (antibody, V domains shown)
VH: QLQLVQSGAEVKKPGSSVKVSCKASGGTFTSYAINWVRQVPGQGLEWMGEISPVFGTTHYAQKFQGRLKITADESADTAYMELSSLRSDDTAVYYCGRDRAPRLCSGGRCHSPPDHWGQGTLVTVSS
VL: DIQMTQSPSSVSASVGDRVTITCRASQGFGNWLAWYQQKPGRAPKLLIFGASTLQNGVPSRFSGSASGTDFTLTITSLQPEDFATYYCLQTNTFPYTFGQGTKVEIKR
Regarding B3, the “IC50, HCVpp neutralization” value came out at 1.06 µg/mL in assay [13] and 0.47 µg/mL in assay [14]. The “IC90, HCVpp neutralization” value is above 50 µg/mL in assay [13] and 8.51 µg/mL in [14]. Moreover, the “relative binding, mutant vs wild type” value in assay [15] was 217%; in assay [16] it was 203%; in assay [17], below 10%. In addition, the Kd in assay [18] came to 39.3 nM; in [19], 22.8 nM. For the same molecule, the koff in assay [18] was determined as 0.00142 s⁻¹; in assay [19], 0.00098 s⁻¹.

B4: AT15-009 (antibody, V domains shown)
VH: QVLLVQSGAEVKKPGSSVKVSCKASGGTFSTYAISWLRQAPGQGPEWMGGIVPMFGITNYAQHFQGRITITADKSTSTAYMELSSLGSEDTAVYFCARDLRSGGTFFSRGFDLWGPGTKVTVSS
VL: EIVLTQSPGTLSLSPGERATLSCRASQSVSSSFLTWYQQKPGQAPRLLIFDASTRATGVPDRFSGSGSGTDFTLTISRLEPEDFGVYYCQQFDSSPTFGGGTKVEIK
As for B4, the “relative binding, mutant vs wild type” value in [1] worked out at 103%; in assay [2], 93%; in assay [3], 57%; in assay [4], 64%; in [5], 113%; in assay [6], 87%. Besides, the “relative binding, mutant vs wild type” value in assay [7] was 84%; in assay [8], 118%; in [9], 94%; in assay [10], 94%; in assay [11], 102%; in assay [12], 116%.
